Test results published in patent US12448418B2, “Activatable therapeutic peptides and uses thereof” (priority 2022, dated 2025).

Assays:
[1] = test system: Pseudomonas aeruginosa PAO1; assay: Antibacterial assay (MIC) on PAO1, conjugate with and without thrombin pre-cleavage; type: cell-based; conditions: for fold activity masking in term of antibacterial activity on PAO1: peptide formulated into ABD-AMP conjugate, with and without thrombin pre-cleavage (FIGS. 6A and B)
Excerpt: (§1) FIG. 3. In vitro evaluation of a model ABD-AMP conjugate. (A) Schematic of (ABD)2-(EEG)6-S12-(D)Pex. (B) Antibacterial assay on PAO1 treated with conjugate with and without thrombin pre-cleavage. OD600 indicates extent of bacteria viability. (C) MTS-based mammalian toxicity evaluation of L929 fibroblasts. (D) Hemolysis assay on mouse red blood cells.
(§2) FIG. 6. Evaluation of activity masking for alternative AMPs and alternative application. Antibacterial assay on PAO1 treated with (A) (ABD)2-(EEG)6-512-POL7080 and (B) (ABD)2-(EEG)6-S12-Colistin with and without thrombin pre-cleavage. OD600 indicates extent of bacteria viability. (C) Evaluation of anticancer activity masking of (ABD)2-(EEG)6-S12-(D)Pex on HepG2 cell line by an MTS assay.
(§3) To verify activity masking of our therapeutics, we evaluated antibacterial activity of our model ABD-AMP conjugate candidate ((ABD)2-(EEG)6-S12-(D)Pex) (FIG. 3A) with and without thrombin pre-activation on Pseudomonas aeruginosa PAO1. […] Overall, formulating AMP as an ABD-AMP conjugate provides an activity mask that can be activated with cleavage of the cleavable linker.
To ensure broad application across different therapeutic peptides, we formulated additional AMPS (POL7080 and colistin) into ABD-AMP conjugates and evaluated the extent of activity masking. […] Given that several AMPS are widely explored for anticancer property capitalizing on higher negative charge of cancer cell membrane, we determined whether ABD-AMP conjugate formulation could be utilized in the cancer context. Cell toxicity assay of (ABD)2-(EEG)6-S12-(D)Pex was performed on human hepatocellular carcinoma cell line HepG2 (FIG. 6C).

[2] = In vivo toxicity evaluation after intravenous treatment; conditions: for H&E staining of kidney sections, pathological features / H&E staining of spleen sections, pathological features / serum alanine aminotransferase (ALT) level / serum aspartate aminotransferase (AST) level / serum blood nitrogen urea (BUN) level: 10 mg/kg AMP equivalent dose
Excerpt: FIG. 5. In vivo toxicity evaluation of a model ABD-AMP conjugate. (A) Treatment groups and their body conditions. (B) Serum chemistry analysis of ALT, AST, and BUN. (C) H&E staining of spleen and kidneys sections. Arrows indicate protein casts or apoptotic bodies.
Given a favorable biodistribution profile of ABD-AMP conjugate, we next evaluated if our conjugate could improve safety profile of AMP. We performed toxicity evaluation in mice following intravenous treatments with free AMP (D)Pex or conjugate (ABD)2-(EEG)6-S12-(D)Pex at 5 and 10 mg/kg AMP equivalent doses (FIG. 5A). […] In the spleens of the (D)Pex-treated mice, patches of apoptotic lymphocytes were observed. These pathological features were not observed in mice treated with the conjugate at the equivalent AMP dose. Altogether, our conjugate formulation effectively improves safety profile of AMP following systemic administration.

[3] = Excerpt: FIG. 4. In vivo pharmacokinetic and biodistribution evaluations of a model ABD-AMP conjugate. […] (B) Pharmacokinetics of ABD-AMP-Cy7 conjugate and a free AMP-Cy7 control. (C) Experimental timeline for time-lapse biodistribution and conjugate activation evaluation in a PAO1 lung infection model. Quantification of intact and active AMP contents in (D) lungs, (E) kidneys, (F) liver, and (G) spleen at different time points. […] (I) Estimated fold change at equivalent lung exposure of active AMP content.
To study time-lapse biodistribution and conjugate activation in an infection context, we first infected mice with PAO1 via intratracheal instillation (IT) (FIG. 4C). The conjugate or free AMP control were intravenously (IV) administered 6 h post infection. The mice were euthanized at different time points, and organs were harvested and homogenized for quantification of conjugate and released AMP contents via SDS-PAGE analysis. […] Alternatively, when estimating at the equivalent lung exposure of active AMP, our conjugate reduced exposure of active AMP to kidneys, liver, and spleen by 3.1, 9.3, and 4.2 fold, respectively (FIG. 4I).

mouse red blood cells = conditions: intact conjugate
Excerpt: as §1, §3

L929 fibroblasts = conditions: intact conjugate; MTS
Excerpt: as §1, §3

[4] = test system: human hepatocellular carcinoma cell line HepG2; assay: Cell toxicity (MTS) assay on HepG2, anticancer activity masking; type: cell-based
Excerpt: as §2
To ensure broad application across different therapeutic peptides, we formulated additional AMPS (POL7080 and colistin) into ABD-AMP conjugates and evaluated the extent of activity masking. A 64-fold activity masking was similarly observed for both peptides in term of antibacterial activity on PAO1 (FIGS. 6A and B) confirming robust activity masking of AMPS across diverse secondary structures. Given that several AMPS are widely explored for anticancer property capitalizing on higher negative charge of cancer cell membrane, we determined whether ABD-AMP conjugate formulation could be utilized in the cancer context. Cell toxicity assay of (ABD)2-(EEG)6-S12-(D)Pex was performed on human hepatocellular carcinoma cell line HepG2 (FIG. 6C). […] Altogether, ABD-AMP conjugate platform represents a generalizable platform for formulating diverse activatable therapeutic peptides for different disease applications with aberrant protease microenvironment such as microbial infection and cancer.

6-methyloctanoic acid-Dab-Thr-Dab-(Dab-Dab-(D-Leu)-Leu-Dab-Dab-Thr) (SEQ ID NO: 84) [colistin]
fold activity masking in term of antibacterial activity on PAO1 [1]: 64 fold

CC[C@@H](C)[C@@H](NC(=O)CN)C(=O)NCC(=O)N[C@H](CCCCN)C(=O)N[C@H](Cc1ccccc1)C(=O)N[C@H](CC(C)C)C(=O)N[C@H](CCCCN)C(=O)N[C@H](CCCCN)C(=O)N[C@H](C)C(=O)N[C@H](CCCCN)C(=O)N[C@H](CCCCN)C(=O)N[C@H](Cc1ccccc1)C(=O)NCC(=O)N[C@H](CCCCN)C(=O)N[C@H](C)C(=O)N[C@H](Cc1ccccc1)C(=O)N[C@@H](C(=O)N[C@H](CCCCN)C(=O)N[C@@H](C(=O)N[C@H](CC(C)C)C(=O)N[C@H](CCCCN)C(=O)N[C@H](CCCCN)C(N)=O)[C@H](C)CC)C(C)C [(D)Pex, GiGkflkkakkfGkafvkilkk-CONH2 (SEQ ID NO: 74)]
mice that did not survive to the end point ([2]; 10 mg/kg, 24 h end point): 3 out of 5
H&E staining of kidney sections, pathological features ([2]; mice): significant damage
H&E staining of spleen sections, pathological features ([2]; mice): significant damage
serum alanine aminotransferase (ALT) level ([2]; mice): exceeding the reference range
serum aspartate aminotransferase (AST) level ([2]; mice): exceeding the reference range
serum blood nitrogen urea (BUN) level ([2]; mice): exceeding the reference range
body condition (signs of distress) ([2]; mice, 10 mg/kg, observed 24 h): evident signs of distress

Cyclo-(T-W-I-(Dab)-(Orn)-(Dab)-(Dab)-W-(Dab)-(Dab)-A-S-p-P) (SEQ ID NO: 88) [POL7080]
fold activity masking in term of antibacterial activity on PAO1 [1]: 64 fold

B1: (ABD)2-(EEG)6-S12-(D)Pex-Cy7: Cy7-labelled model ABD-AMP conjugate, Table 8, SEQ ID NO: 158 (conjugate)
chain: GLKEAKEKAIEELKKAGITSDYYFDLINKAKTVEGVNALKDEILKAGGGGSGGGGSGGGGSLKEAKEKAIEELKKAGITSDYYFDLINKAKTVEGVNALKDEILKAHHHHHHSPSTPPTPSPSTPPEEGEEGEEGEEGEEGEEGPLGLRSWGCGIGKFLKKAKKFGKAFVKILKKK
modifications: Cy7 label; MISC_FEATURE - Chemically linked -(DBCO-Maleimide)-Azidoacetyl; SITE 155 MISC_FEATURE - D amino acid; MISC_FEATURE - D amino acid; SITE 176 MISC_FEATURE - linked to (Cy7)
fold increase in area-under-the-concentration-time curve (AUC), circulation ([3]; compared to the free (D)Pex-Cy7 control): 91 fold
AUC fold higher active AMP delivered to the lungs ([3]; mouse, in vivo): 2.6 fold
AUC fold reduction of active AMP exposure, kidneys ([3]; mouse, in vivo): 1.2 fold
AUC fold reduction of active AMP exposure, liver ([3]; mouse, in vivo): 3.6 fold
AUC fold reduction of active AMP exposure, spleen ([3]; mouse, in vivo): 1.6 fold
fold reduction of active AMP exposure, kidneys, at equivalent lung exposure ([3]; mouse, in vivo): 3.1 fold
fold reduction of active AMP exposure, liver, at equivalent lung exposure ([3]; mouse, in vivo): 9.3 fold
fold reduction of active AMP exposure, spleen, at equivalent lung exposure ([3]; mouse, in vivo): 4.2 fold

B2: (ABD)2-(EEG)6-S12-(D)Pex: model ABD-AMP conjugate, Table 8, SEQ ID NO: 157 (conjugate)
chain: GLKEAKEKAIEELKKAGITSDYYFDLINKAKTVEGVNALKDEILKAGGGGSGGGGSGGGGSLKEAKEKAIEELKKAGITSDYYFDLINKAKTVEGVNALKDEILKAHHHHHHSPSTPPTPSPSTPPEEGEEGEEGEEGEEGEEGPLGLRSWGCGIGKFLKKAKKFGKAFVKILKK
modifications: MISC_FEATURE - Chemically linked by a (DBCO-Maleimide)-Azidoacetyl; SITE 155 MISC_FEATURE - D amino acid; MISC_FEATURE - D amino acid
fold higher minimum inhibitory concentration (MIC) of intact conjugate ([1]; intact conjugate versus thrombin pre-activated, PAO1, MIC = lowest treatment concentration that fully inhibits bacteria growth): 64 fold
masking of hemolysis (mouse red blood cells): effectively mask
masking of mammalian toxicity on L929 fibroblasts (L929 fibroblasts): effectively mask
cell toxicity on HepG2, after activation by target protease (Thrombin) ([4]; thrombin pre-cleaved): restored
cell toxicity on HepG2, intact conjugate ([4]; without protease activation): natively inactive
H&E staining of kidney sections, pathological features ([2]; mice): not observed
H&E staining of spleen sections, pathological features ([2]; mice): not observed
serum alanine aminotransferase (ALT) level ([2]; mice): within the normal reference range
serum aspartate aminotransferase (AST) level ([2]; mice): within the normal reference range
serum blood nitrogen urea (BUN) level ([2]; mice): within the normal reference range
tolerability / body condition ([2]; mice, 5 and 10 mg/kg AMP equivalent doses, observed 24 h): well tolerated up to the highest dose tested with no signs of distress
